The results in this text go back to publication PMC3495951.

This assay concerns the target EGFP-H2B (UniProt P06899). Nature of the assay: FRET or BRET; FLIM-FRET in living cells at 37°C; EGFP fusion as donor, mCherry fusion as acceptor; two-photon excitation at 890 nm; FRET efficiency = 1 - (tauDA/tauD), tauD from cells with mCherry-C1; control cells and TSA-treated cells. A general note: In BRET a luciferase serves as donor, and the signal depends on an acceptor being close.

The substance “mCherry-SRSF1 (from UniProt Q07955 1-248) (natural protein)” showed an FRET efficiency (minor population) of 6%.
